This note sets out measurements from article PMC5655238.

The target in the experiment is Bcl-2 (UniProt P10415). Briefly: anti-HA IP, Bcl-2 blot. Particulars: reference: HA-Beclin-1 wild type; sites T119.

For “Beclin-1 (from UniProt Q14457) HA-Beclin-1 T119A”, the “binding against the reference” value was “stronger”.
